Results taken from patent US20060052286A1, “Factor VII conjugates for selectively treating neovascularization disorders” (Yale University, priority 2004, published 2006).

B1: mfVIIPD: verteporfin conjugated via EDC to mfVIIP protein (mouse factor VII with K341A mutation) (conjugate, UniProt P70375 1-446, looked up, variant K341A)
chain: MVPQAHGLLLLCFLLQLQGPLGTAVFITQEEAHGVLHRQRRANSLLEELWPGSLERECNEEQCSFEEAREIFKSPERTKQFWIVYSDGDQCASNPCQNGGTCQDHLKSYVCFCLLDFEGRNCEKSKNEQLICANENGDCDQYCRDHVGTKRTCSCHEDYTLQPDEVSCKPKVEYPCGRIPVVEKRNSSSRQGRIVGGNVCPKGECPWQAVLKINGLLLCGAVLLDARWIVTAAHCFDNIRYWGNITVVMGEHDFSEKDGDEQVRRVTQVIMPDKYIRGKINHDIALLRLHRPVTFTDYVVPLCLPEKSFSENTLARIRFSRVSGWGQLLDRGATALELMSIEVPRLMTQDCLEHAKHSSNTPKITENMFCAGYMDGTKDACAGDSGGPHATHYHGTWYLTGVVSWGEGCAAIGHIGVYTRVSQYIDWLVRHMDSKLQVGVFRLPLL
modifications: verteporfin conjugate; S-peptide and His6 tags
B2: mfVIIP: mouse factor VII with K341A mutation, ribonuclease S-peptide and 6 Histidines, produced in CHO cells (protein, UniProt P70375 1-446, looked up, variant K341A)
chain: MVPQAHGLLLLCFLLQLQGPLGTAVFITQEEAHGVLHRQRRANSLLEELWPGSLERECNEEQCSFEEAREIFKSPERTKQFWIVYSDGDQCASNPCQNGGTCQDHLKSYVCFCLLDFEGRNCEKSKNEQLICANENGDCDQYCRDHVGTKRTCSCHEDYTLQPDEVSCKPKVEYPCGRIPVVEKRNSSSRQGRIVGGNVCPKGECPWQAVLKINGLLLCGAVLLDARWIVTAAHCFDNIRYWGNITVVMGEHDFSEKDGDEQVRRVTQVIMPDKYIRGKINHDIALLRLHRPVTFTDYVVPLCLPEKSFSENTLARIRFSRVSGWGQLLDRGATALELMSIEVPRLMTQDCLEHAKHSSNTPKITENMFCAGYMDGTKDACAGDSGGPHATHYHGTWYLTGVVSWGEGCAAIGHIGVYTRVSQYIDWLVRHMDSKLQVGVFRLPLL
modifications: S-peptide and His6 tags
notes: mouse factor VII with K341A mutation, ribonuclease S-peptide and 6 Histidines, produced in CHO cells

Key:
[1] = tested on: choroidal neovascularization (CNV) lesions; test: Targeted photodynamic therapy of laser-induced CNV lesions in rats (fluorescein angiography); assay type: in vivo, Norway-Brown rats
Procedure: CNV lesions were induced by laser photocoagulation of the retina in both eyes of Norway-Brown rats. Group 1: one eye received an intravitreal injection of 10 ul verteporfin conjugated to targeting molecule, and the other eye was used as a control. One hour later some of the lesions were treated with 690 nm laser light, while the other lesions were not irradiated. Group 2: one eye received iv. injection of 0.5 to 1 mg/m^2 verteporfin conjugated with targeting molecule. 15, 30 or 60 minutes later some of the lesions were treated with 690 nm laser light, while the other lesions were not irradiated. The lesions were examined by fluorescein angiography 1, 7 and 14 days later to assess the efficacy of targeted photodynamic therapy. In the case of intravitreal treatment with the same dosage, the effects of targeted photodynamic therapy lasted at least seven days. While there is no effect of PDT in the case of intravitreal injection of free verteporfin, the effects of targeted photodynamic therapy last even longer than 14 days, and the dosage of verteporfin in targeted photodynamic therapy is only 16% as compared to regular PDT verteporfin.
CNV lesions were induced by laser photocoagulation of the retina in both eyes of Norway-Brown rats. Choroidal neovascularization was induced by photocoagulating the posterior pole of rats with argon green laser using a slit lamp and a fundus contact lens to deliver 200-700 mW power for 0.1 second to a 50 μm spot. The power was adjusted to produce a blister or small hemorrhage. If no bleeding was observed, an additional laser-induced lesion was produced next to the first spot. Neovascular membranes usually develop within 2 weeks.
After 4 weeks, FVII-verteporfin conjugate (fVIIPD) at doses of 0.5 or 1 mg/m^2 was injected intravenously into the tail vein of the rats. Some of the CNV lesions were irradiated with 689 nm laser for 83 seconds at 15, 30 or 60 minutes after intravenous injection, while the other lesions were not irradiated (no light controls). Control rats were intravenously injected with Verteporfin (6.0 mg/m2) and laser irradiation was done 15 minutes later. The lesions were examined by fundus photographs and fluorescein angiography 1, 7 and 14 days later to assess the efficacy of ITPT. Choroidal veovascular membranes were treated by intravitreal injection of Verteporfin attached to targeting molecules that bind selectively to the endothelial cells of pathologic vessels. The photosensitizer was activated with an opal laser. A similar experiment was performed by intravitreal injection of fVII-targeted verteporfin.

[2] = molecular target: T1, Tissue Factor on the tumor cells (human breast cancer cells) (Homo sapiens, UniProt P13726); test: Binding to human breast cancer cells expressing TF by flow cytometry; conditions: conjugated compared with non-conjugated molecule
T1 construct: Human Tumor Cells Expressing TF; endogenous in cells
T1 sequence (P13726 33-295): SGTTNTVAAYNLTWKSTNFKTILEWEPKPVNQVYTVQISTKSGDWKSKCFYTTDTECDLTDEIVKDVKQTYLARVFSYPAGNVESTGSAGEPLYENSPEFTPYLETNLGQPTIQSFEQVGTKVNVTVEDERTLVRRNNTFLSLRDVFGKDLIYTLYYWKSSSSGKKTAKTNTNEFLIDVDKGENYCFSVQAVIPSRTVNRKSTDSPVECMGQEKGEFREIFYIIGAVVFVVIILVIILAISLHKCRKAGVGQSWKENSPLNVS
Procedure: mfVIIP was conjugated to verteporfin using the procedure described above. The binding activity of the conjugate to human breast cancer cells was tested by flow cytometry

Molecule	effect of PDT ([1]; intravitreal injection, same dosage)	blood vessel leakage ([1]; intravitreal injection followed by laser activation, at 7 days)	duration of effects of targeted photodynamic therapy ([1]; intravitreal treatment, 690 nm laser light)	duration of effects of targeted photodynamic therapy ([1]; route not stated in the sentence (apparently iv 0.5 to 1 mg/m^2), verteporfin dosage only 16% of regular PDT)	binding activity to human breast cancer cells [2]
verteporfin [reference compound]	no effect	–	–	–	–
B1	–	completely stopped blood vessel leakage	at least seven	> 14 days	identical
B2	–	–	–	–	identical
